Results on two molecules are retold here after patent US20060088522A1, “Humanized anti-5T4 antibodies and anti-5T4/calicheamicin conjugates” (Wyeth, priority 2004, published 2006).

For test [1], the target named is T1, human 5T4 antigen on cells (human, UniProt Q13641 32-420).
T1 construct: whole, on cells; also called 5T4 on MDAMB435/5T4 cells; 5T4 on CT26/5T4 cells
T1 sequence (looked up): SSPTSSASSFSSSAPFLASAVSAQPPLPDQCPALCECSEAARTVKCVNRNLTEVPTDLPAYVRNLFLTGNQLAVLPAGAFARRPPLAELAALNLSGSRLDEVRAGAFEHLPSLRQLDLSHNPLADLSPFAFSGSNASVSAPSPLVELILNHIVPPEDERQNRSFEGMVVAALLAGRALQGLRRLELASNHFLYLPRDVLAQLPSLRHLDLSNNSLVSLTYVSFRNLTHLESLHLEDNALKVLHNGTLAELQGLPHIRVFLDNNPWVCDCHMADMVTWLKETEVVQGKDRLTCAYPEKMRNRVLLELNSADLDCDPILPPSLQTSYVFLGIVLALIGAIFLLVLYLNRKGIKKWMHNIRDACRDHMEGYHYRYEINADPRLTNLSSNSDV
The test is described as follows: flow cytometry on MDAMB435/5T4 cells.

For test [2], the target named is T1, human 5T4 antigen on cells. Kind of test: flow cytometry on N87, PC14PE6 and NCl-H157 cells (told of each).
Test [3] has as its target T2, human 5T4 antigen (human, UniProt Q13641 32-355, limits assumed).
T2 construct: Isolated antigen as used in BIACORE and ELISA; also called 5T4 oncofetal antigen
T2 sequence (looked up): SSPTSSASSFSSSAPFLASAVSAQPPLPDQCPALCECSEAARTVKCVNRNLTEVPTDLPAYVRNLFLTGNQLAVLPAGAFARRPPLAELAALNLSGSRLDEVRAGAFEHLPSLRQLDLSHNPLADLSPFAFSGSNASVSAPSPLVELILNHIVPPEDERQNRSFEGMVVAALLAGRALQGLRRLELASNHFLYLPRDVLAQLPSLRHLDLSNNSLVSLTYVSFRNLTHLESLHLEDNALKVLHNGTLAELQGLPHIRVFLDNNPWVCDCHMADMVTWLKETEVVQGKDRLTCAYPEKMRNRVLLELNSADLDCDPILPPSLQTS
Kind of test: BIACORE, human 5T4 antigen immobilized on a CM5 chip, antibody 12.5 nM to 200 nM. The protocol:
BIACORE® technology utilizes changes in the refractive index at the surface layer upon binding of the antibody to the 5T4 antigen immobilized on the layer. Binding is detected by surface plasmon resonance (SPR) of laser light refracting from the surface. Analysis of the signal kinetics on rate and off rate allows the discrimination between non-specific and specific interaction. The concentration of antibody used was in the range of 12.5 nM to 200 nM.

Test [4] deals with T2, human 5T4 antigen. The test is described as follows: competition ELISA on plate-coated human 5T4 antigen; competitor biotinylated chimeric H8 at its ED50.
Method: ELISA plates were coated with human 5T4 antigen. To each well was added 100 μl of 1 μg/ml 5T4 antigen in PBS-CMF pH 7.2. The plates were incubated overnight at 4° C. After coating with antigen, plates were washed in a blocking solution of 0.02% casein in PBS-CMF, pH 7.2 for 2-4 hours at room temperature. […] Plates were washed 4 times with 200 μl of 0.03% TWEEN®-20 in PBS. The signal was developed for 10-15 minutes at room temperature following addition of 100 ∥l BIOFX® TMB (Biofx Laboratories, Inc. of Randallstown, Md.) per well. The reaction was stopped by addition of 100 μl per well of 0.18 N H₂SO₄. All incubation and wash steps were performed with gentle agitation. […] The ED50 of biotinylated antibody binding to antigen was determined by plotting OD₄₅₀ (duplicate data points averaged) as a function of biotinylated antibody concentration. […] The biotin label was amplified using streptavidin-HRP diluted 1:10,000 in assay buffer, followed by signal development and quantification as above.

B1: murine H8 anti-5T4 antibody (antibody, V domains shown)
VH: EVQLQQSGPDLVKPGASVKISCKASGYSFTGYYMHWVKQSHGKSLEWIGRINPNNGVTLYNQKFKDKAILTVDKSSTTAYMELRSLTSEDSAVYYCARSTMITNYVMDYWGQVTSVTVSS
VL: SIVMTQTPTFLLVSAGDRVTITCKASQSVSNDVAWYQQKPGQSPTLLISYTSSRYAGVPDRFIGSGYGTDFTFTISTLQAEDLAVYFCQQDYNSPPTFGGGTKLEIK
notes: also called mAb5T4; H8 antibody
Consider B1, for which the “fold signal over control IgG” value in test [1] was over 100 fold. Further, the “fold signal over control IgG” value in test [2] was about 10 fold. For the same molecule, in the test with human 5T4 antigen [3], the Kd is 0.58 nM, the off-rate (koff) is 5.9e-05 s⁻¹ and the kon turned out to be 100000 M⁻¹ s⁻¹.

B2: Chimeric H8 (mVH/mVL) (antibody, V domains shown)
VH: EVQLQQSGPDLVKPGASVKISCKASGYSFTGYYMHWVKQSHGKSLEWIGRINPNNGVTLYNQKFKDKAILTVDKSSTTAYMELRSLTSEDSAVYYCARSTMITNYVMDYWGQVTSVTVSS
VL: SIVMTQTPTFLLVSAGDRVTITCKASQSVSNDVAWYQQKPGQSPTLLISYTSSRYAGVPDRFIGSGYGTDFTFTISTLQAEDLAVYFCQQDYNSPPTFGGGTKLEIK
notes: also called chimeric H8 antibody; chimeric versions of H8
In the test with human 5T4 antigen [3], B2 returned a Kd of 0.3 nM, a koff of 4.2e-05 s⁻¹ and a kon of 140000 M⁻¹ s⁻¹. Besides, the IC50 with human 5T4 antigen [4] was 1 nM.

For orientation: Kd means the concentration at which binding is half-saturated. Low readings indicate higher affinity, high ones lower affinity. As usually defined, the koff is the rate constant with which the complex falls apart. Low values mean a long-lived complex, high ones a short-lived complex. By kon is commonly meant a measure of how fast the partners come together. In general, IC50 refers to the concentration at which inhibition is half-maximal. Read a high IC50 as weaker potency in that assay.
